From PMC7611554
pKd: −log10 of the molar value.

Target: SNAP-LepR:EGFR complex (UniProt P48356)
Assay: FRET or BRET

EGF-d2 (ligand)
pKd: 8.68
